Columns and labels:
[1] = target: T1, human PDGF-BB (human, UniProt P01127 82-190); assay: cell-based or functional assay
[2] = target: T1, human PDGF-BB; assay: SPR (Biacore 2000), antibody captured via anti-human IgG, PDGF injected
Description: (§1) Anti-human (A-D, I-K) or anti-mouse (E-H) IgG antibodies were immobilized in flow cells of CM5 sensor chips. 1 μg/mL of MOR8457-IKR-hIgG1-3m (A-D), MOR8457-mIgG1 (E-H) or MOR8457-GL-hIgG1-3m (I-K) was injected independently over the respective anti-human or anti-mouse surface for 10 seconds resulting in a stable anti-PDGF surface between 50-100 RU. Different concentration of PDGF proteins, 0.25, 0.5, and 1 nM, was then injected over the antibody surface for 2 minutes at a flow rate of 100 μl/min for binding. The complex was allowed to dissociate for 10 minutes. The surface was regenerated with a 30 second injection of 10 mM magnesium chloride leaving the surface ready for another round of anti-PDGF antibody capture and PDGF binding kinetics. Each of these three antibodies bound tightly to human (A, E, I), mouse (B, F, J) and rat (C, G, K) PDGF-BB. MOR8457-IKR-hIgG1-3m (D) and MOR8457-mIgG1 (H) bound to human PDGF-AB. Each sensorgram shown is one representative of three independent experiments.
(§2) In order to test the specificity and cross species reactivity, the binding affinities of three MOR8457 IgG variants, MOR8457-IKR-hIgG1-3m, MOR8457-mIgG1, and MOR8457-GL-hIgG1-3m, to different human PDGF ligands, including human PDGF-AA, -AB, -DD, as well as rat PDGF-BB (all obtained from R&D systems, Minneapolis, Minn.) and mouse PDGF-BB (Invitrogen, Carlsbad, Calif.) were tested. Briefly, anti-human or anti-mouse IgG (GE Healthcare) antibodies were immobilized in adjacent flow cells of a CM5 sensor chip between 8000-10,000 resonance units (RU) using amine coupling as directed by the manufacturer. Antibodies were diluted into PBS-NET (10 mM Phosphate pH 7.4, 287 mM NaCl, 2.7 mM KCl, 3.2 mM EDTA, 0.01% Tween 20) to 1 μg/mL and injected independently over the respective anti-human or anti-mouse surface for 10 seconds resulting in a stable anti-PDGF surface between 50-100 RU. PDGF proteins were diluted to 1 nM in PBS-NET and serially diluted two-fold to 0.25 nM. Each concentration of PDGF was then injected over the antibody surface for 2 minutes at a flow rate of 100 μl/min. The complex was allowed to dissociate for 10 minutes. The surface was regenerated with a 30 second injection of 10 mM magnesium chloride leaving the surface ready for another round of anti-PDGF antibody capture and PDGF binding kinetics.

[3] = target: T2, mouse PDGF-BB (mouse, UniProt P31240 82-190); assay: as above
T2 construct: also called muBB; Mu PDGF-BB
T2 sequence (P31240 82-190 limits assumed): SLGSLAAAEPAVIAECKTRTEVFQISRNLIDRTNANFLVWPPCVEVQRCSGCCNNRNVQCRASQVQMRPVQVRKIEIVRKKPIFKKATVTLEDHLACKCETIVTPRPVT
Description: as §1, §2

[4] = target: T3, rat PDGF-BB (rat, UniProt Q05028 74-182); assay: as above
T3 construct: also called ratBB
T3 sequence (Q05028 74-182 limits assumed): as the sequence (P31240 82-190 limits assumed) above, with I83V, I102V counted along it
Description: as §1, §2

[5] = target: T1, human PDGF-BB; assay: SPR (Biacore 3000), antibody captured via anti-human IgG, PDGF injected
Description: (§3) FIG. 20, comprising panels A through D, depicts Biacore sensorgrams showing the binding kinetics of MOR8457-16 to different PDGF isoforms. MOR8457-16 was captured onto CM5 chips using an anti-human IgG antibody. The binding kinetics of each PDGF isoform was assessed by flowing different concentrations of each PDGF isoform over the captured MOR8457-16 surface. The concentrations of Hu-PDGF-BB (A) and Mu-PDGF-BB (C) were 0.25, 0.5, and 1 nM, and the concentrations for Hu-PDGF-AB (B) and Rat-PDGF-BB (D) were 0.5 and 1 nM. Each sensorgram is one representative of two independent experiments. Kinetics data were double referenced and fit using Biacore evaluation software version 4.1.
(§4) The binding affinities of MOR8457-16 to different PDGF isoforms were determined as previously described (Example 6) using a Biacore 3000 (GE Healthcare, Piscataway N.J.). Briefly, an anti-human IgG (GE Healthcare) antibody was immobilized in flow cells of a CM5 sensor chip between 8,000-10,000 resonance units (RU) using amine coupling as directed by the manufacturer. Test antibodies were diluted into PBS-NET (10 mM Phosphate pH 7.4, 287 mM NaCl, 2.7 mM KCl, 3.2 mM EDTA, 0.01% Tween-20) to 0.5 ug/mL and injected over the anti-human antibody surface for 30 seconds resulting in a stable anti-PDGF surface between 82-122 RU. PDGF proteins were diluted to 1 nM in PBS-NET and serially diluted two-fold to 0.25 nM. Each concentration of PDGF was then injected over the antibody surface for 2 minutes at a flow rate of 100 ul/min. The complex was allowed to dissociate for 10 minutes. The surface was regenerated with a 30 second injection of 3M magnesium chloride leaving the surface ready for another round of anti-PDGF antibody capture and PDGF binding kinetics. Kinetic data was double referenced (D. G. Myszka et al., J. Mol. Recognit. 12:279, 1999) using Scrubber2 software (Bio-Logic Software), then fit to a 1:1 binding model using Biacore evaluation software version 4.1. Protein concentrations of all PDGF isoforms were corrected with active concentrations determined under the condition of limiting mass transport (Karlsson et al., METHODS: A companion to Methods in Enzymology 6:99-110, 1994). Results shown were averages of two independent binding studies.

[6] = target: T2, mouse PDGF-BB; assay: as above
Description: as §3, §4

[7] = target: T3, rat PDGF-BB; assay: as above
Description: as §3, §4

[8] = target: T4, human PDGF-AB (human, UniProt P04085 87-211, limits assumed); assay: as above
T4 construct: Heterodimer of PDGF-A and PDGF-B, bought; also called huAB; Hu PDGF-AB
T4 sequence (chain, as listed by the source limits assumed, chain 2 of 2, other chains not shown): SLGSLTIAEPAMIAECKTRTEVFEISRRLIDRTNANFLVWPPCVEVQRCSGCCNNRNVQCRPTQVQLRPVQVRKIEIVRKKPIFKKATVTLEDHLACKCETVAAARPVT
Description: as §3, §4

[9] = target: T4, human PDGF-AB; assay: SPR (Biacore)
Description: as §2, with “kinetics. […]” for “kinetics.”

[10] = target: human PDGF-AA (human, UniProt P04085 87-211, limits assumed); assay: SPR (Biacore), antibody captured
Description: as §2, with “kinetics. Kinetic data were double referenced (Myszka et al., 1999, J. Mol. Recognit. 12 279) using scrubber2 software (Bio-Logic Software), then fit to a 1:1 binding model using Biacore evaluation software version 4.1. The results shown were an average of three independent binding studies.” for “kinetics.”

[11] = target: human PDGF-DD (human, UniProt Q9GZP0 250-370, limits assumed); assay: SPR (Biacore), antibody captured
human PDGF-DD, sequence (Q9GZP0 250-370 limits assumed): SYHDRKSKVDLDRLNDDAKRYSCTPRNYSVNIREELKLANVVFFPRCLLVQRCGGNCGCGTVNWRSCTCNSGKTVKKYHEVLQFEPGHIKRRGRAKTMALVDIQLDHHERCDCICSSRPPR
Description: as §2, with “kinetics. Kinetic data were double referenced (Myszka et al., 1999, J. Mol. Recognit. 12 279) using scrubber2 software (Bio-Logic Software), then fit to a 1:1 binding model using Biacore evaluation software version 4.1. The results shown were an average of three independent binding studies.” for “kinetics.”

[12] = target: T4, human PDGF-AB; assay: SPR (Biacore 2000), antibody captured via anti-human IgG, PDGF injected
Description: as §1, §2

T1 sequence (P01127 82-190 limits assumed): as the sequence (chain, as listed by the source limits assumed, chain 2 of 2, other chains not shown) above

B1: MOR8457-GL-hIgG1-3m (antibody, V domains shown)
VH: EVQLLESGGGLVQPGGSLRLSCAASGFTFSSYAMSWVRQAPGKGLEWVSYISDDGSLKYYADSVKGRFTISRDNSKNTLYLQMNSLRAEDTAVYYCAKHPYWYGGQLDLWGQGTLVTVSS
VL: SYELTQPPSVSVSPGQTASITCSGDSLGSYFVHWYQQKPGQSPVLVIYDDSNRPSGIPERFSGSNSGNTATLTISGTQAMDEADYYCSAFTHNSDVFGGGTKLTVLG
notes: Germlined VH and VL, human IgG1-3m, wild type human lambda
IC50, inhibition of PDGF-BB (2.5 ng/ml) stimulated mesangial cell proliferation [1]: 20 pM
Kd [2]: 13 pM
koff [2]: 0.00019 s⁻¹
kon [2]: 1.5e+07 M⁻¹ s⁻¹
Kd [3]: 4 pM
koff [3]: 0.0002 s⁻¹
kon [3]: 5.3e+07 M⁻¹ s⁻¹
Kd [4]: 15 pM
koff [4]: 0.00024 s⁻¹
kon [4]: 1.7e+07 M⁻¹ s⁻¹

B2: MOR8457-16 (antibody, human IgG1, lambda, V domains shown)
VH: EVQLLQSGGGLVKPGGSLRLSCAASGFTFSSYAMSWVRQAPGKGLEWVSYISDDGSLKYYADSVKGRFTISRDNSKNTLYLQMNSLRAEDTAVYYCARHPYWYGGQLDLWGQGTLVTVSS
VL: SYELTQPPSVSVSPGQTASITCSGDSLGSYFVHWYQQKPGQSPVLVIYDDSKRPSGIPERFSGSNSGNTATLTISGTQAMDEADYYCSAFTHNSDVFGGGTKLTVLG
notes: Engineered variant of MOR8457-GL: heavy E6Q, Q13K; light N53K (Kabat); human IgG1-3m; also called MOR8547-16
IC50, inhibition of PDGF-BB (2.5 ng/ml) stimulated mesangial cell proliferation [1]: 14 pM
Kd [5]: 9.75 pM
koff [5]: 0.000169 s⁻¹
kon [5]: 1.73e+07 M⁻¹ s⁻¹
Kd [6]: 8.62 pM
koff [6]: 0.00018 s⁻¹
kon [6]: 2.16e+07 M⁻¹ s⁻¹
Kd [7]: 8.88 pM
koff [7]: 0.000114 s⁻¹
kon [7]: 1.29e+07 M⁻¹ s⁻¹
Kd [8]: ~8.02 pM
koff [8]: < 1e-05 s⁻¹
kon [8]: 3.39e+06 M⁻¹ s⁻¹

B3: MOR8457-IKR-hIgG1-3m (antibody)
heavy: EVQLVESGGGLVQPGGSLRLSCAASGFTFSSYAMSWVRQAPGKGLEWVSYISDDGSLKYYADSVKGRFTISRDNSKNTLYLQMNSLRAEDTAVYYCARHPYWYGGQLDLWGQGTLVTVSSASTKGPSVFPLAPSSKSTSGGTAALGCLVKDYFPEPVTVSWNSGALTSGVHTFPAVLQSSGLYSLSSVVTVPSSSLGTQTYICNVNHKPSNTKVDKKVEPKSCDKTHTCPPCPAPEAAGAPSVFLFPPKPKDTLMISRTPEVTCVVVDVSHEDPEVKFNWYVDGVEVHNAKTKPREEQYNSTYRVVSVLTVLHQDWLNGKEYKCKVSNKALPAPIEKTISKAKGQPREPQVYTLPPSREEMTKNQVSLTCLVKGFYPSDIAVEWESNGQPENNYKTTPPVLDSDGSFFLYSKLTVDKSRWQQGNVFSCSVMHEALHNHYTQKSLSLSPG
light: SYELTQPPSVSVAPGQTARISCSGDSLGSYFVHWYQQKPGQAPVLVIYDDSNRPSGIPERFSGSNSGNTATLTISGTQAEDEADYYCSAFTHNSDVFGGGTKLTIKRQPKAAPSVTLFPPSSEELQANKATLVCLISDFYPGAVTVAWKADSSPVKAGVETTTPSKQSNNKYAASSYLSLTPEQWKSHRSYSCQVTHEGSTVEKTVAPTECS
notes: also called MOR8457-IKR-IgG1-3m
fold reduction in binding against PDGF-BB [9]: ~3 fold
IC50, inhibition of PDGF-BB induced human mesangial cell proliferation (BrdU incorporation) [1]: 13.4 pM
binding result [10]: no binding (tested: 0.25-1 nM PDGF)
binding result [11]: no binding (tested: 0.25-1 nM PDGF)
Kd [2]: 28 pM
koff [2]: 0.000362 s⁻¹
kon [2]: 1.27e+07 M⁻¹ s⁻¹
Kd [3]: 10 pM
koff [3]: 0.000293 s⁻¹
kon [3]: 2.95e+07 M⁻¹ s⁻¹
Kd [4]: 25 pM
koff [4]: 0.000447 s⁻¹
kon [4]: 1.77e+07 M⁻¹ s⁻¹
Kd [12]: 69 pM
koff [12]: 0.00045 s⁻¹
kon [12]: 6.5e+06 M⁻¹ s⁻¹
